Values quoted from earlier work, collected in publication PMC6289583.

Key:
[1] = target: ICAM-2 (Homo sapiens) (UniProt P13598)
[2] = target: EBP50 (Homo sapiens) (UniProt O14745); experiment: SPR
[3] = target: Moesin (UniProt P26038)
Chain of Moesin (P26038 2-577): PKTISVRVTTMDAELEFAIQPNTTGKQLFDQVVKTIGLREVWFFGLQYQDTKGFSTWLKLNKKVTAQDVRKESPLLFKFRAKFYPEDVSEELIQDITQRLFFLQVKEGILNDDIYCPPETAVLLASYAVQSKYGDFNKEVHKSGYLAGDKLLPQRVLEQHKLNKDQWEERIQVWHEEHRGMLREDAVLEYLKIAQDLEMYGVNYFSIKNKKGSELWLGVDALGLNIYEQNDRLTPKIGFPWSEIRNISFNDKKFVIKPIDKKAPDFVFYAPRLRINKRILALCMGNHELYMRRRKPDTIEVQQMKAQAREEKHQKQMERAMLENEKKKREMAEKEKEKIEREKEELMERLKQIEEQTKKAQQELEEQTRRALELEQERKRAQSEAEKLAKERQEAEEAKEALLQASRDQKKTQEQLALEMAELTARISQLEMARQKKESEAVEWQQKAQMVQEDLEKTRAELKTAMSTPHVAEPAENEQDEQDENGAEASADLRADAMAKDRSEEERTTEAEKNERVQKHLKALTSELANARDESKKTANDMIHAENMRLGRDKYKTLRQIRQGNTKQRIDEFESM

Chain of Ezrin (P15311 whole entry): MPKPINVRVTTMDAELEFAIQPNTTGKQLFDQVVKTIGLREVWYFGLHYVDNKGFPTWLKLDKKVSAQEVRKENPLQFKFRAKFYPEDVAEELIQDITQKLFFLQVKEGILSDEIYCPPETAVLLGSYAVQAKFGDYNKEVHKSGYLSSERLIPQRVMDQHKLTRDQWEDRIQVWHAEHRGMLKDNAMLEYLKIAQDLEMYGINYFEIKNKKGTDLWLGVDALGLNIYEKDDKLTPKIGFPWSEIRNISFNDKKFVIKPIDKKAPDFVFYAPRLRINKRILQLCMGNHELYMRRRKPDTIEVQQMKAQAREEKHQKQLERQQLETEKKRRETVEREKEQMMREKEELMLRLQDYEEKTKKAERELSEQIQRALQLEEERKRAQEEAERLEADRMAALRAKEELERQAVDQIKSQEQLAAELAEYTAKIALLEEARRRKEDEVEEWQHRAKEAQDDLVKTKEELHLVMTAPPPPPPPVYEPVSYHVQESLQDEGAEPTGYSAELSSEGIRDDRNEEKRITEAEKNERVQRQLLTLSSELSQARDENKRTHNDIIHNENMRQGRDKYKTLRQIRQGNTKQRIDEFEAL
Chain of EBP50 (Homo sapiens) (O14745 2-358): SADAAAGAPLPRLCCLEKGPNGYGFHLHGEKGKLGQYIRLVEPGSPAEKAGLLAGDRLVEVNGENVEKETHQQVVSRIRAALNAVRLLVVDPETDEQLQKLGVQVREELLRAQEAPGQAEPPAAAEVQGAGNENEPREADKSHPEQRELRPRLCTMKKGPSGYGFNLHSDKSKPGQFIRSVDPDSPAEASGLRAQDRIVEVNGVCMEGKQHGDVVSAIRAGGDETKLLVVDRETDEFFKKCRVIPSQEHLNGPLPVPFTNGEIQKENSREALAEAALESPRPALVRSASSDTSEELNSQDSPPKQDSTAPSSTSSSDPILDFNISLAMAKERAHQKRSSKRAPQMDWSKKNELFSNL
Chain of CD44 cytoplasmic domain (P16070 671-742): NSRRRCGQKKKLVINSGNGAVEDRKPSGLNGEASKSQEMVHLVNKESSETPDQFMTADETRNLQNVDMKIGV
Chain of ICAM-2 (Homo sapiens) (P13598 25-275): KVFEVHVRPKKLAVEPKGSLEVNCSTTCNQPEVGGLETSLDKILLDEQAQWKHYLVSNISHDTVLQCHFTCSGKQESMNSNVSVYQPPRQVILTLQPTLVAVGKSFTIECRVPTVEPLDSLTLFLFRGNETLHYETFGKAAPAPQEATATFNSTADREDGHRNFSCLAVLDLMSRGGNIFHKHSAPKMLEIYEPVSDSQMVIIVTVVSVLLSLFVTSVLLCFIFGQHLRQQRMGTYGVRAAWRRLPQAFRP

Substance	Kd [1] [nM]	Kd [2] [nM]	Kd [3] [nM]
Ezrin (from UniProt P15311)	330	58	–
CD44 cytoplasmic domain (from UniProt P16070)	–	–	9.3
